Molecular target: the molecule itself
Assay: FTIR; 6 mM peptide in water, pH adjusted from 7.2 to 4.2; amide I band 1625–1630 cm^−1; bio-ATR cell

B1: APR^ex-4 hexapeptide LFIEWL (aggregation-prone region of exendin-4) (peptide)
peptide: LFIEWL
notes: aggregation-prone hexapeptide segment of the non-mammalian exendin-4 (also of exendin-3); free termini; also called LFIEWL (exendin-4); source: synthetic peptide (flow solid-phase synthesis, Fmoc/tBu; RP-HPLC purified)
  binding result: binds
